Measured values: PMC5127646, “Structural basis for the recognition of spliceosomal SmN/B/B’ proteins by the RBM5 OCRE domain in splicing regulation” (eLife, 2016)
Where a chain is given by its changes, count along the chain named. In names and notes the source's numbering stands.

B1: SmN residues 167-196 (domain or fragment)
chain: not shown
notes: source: E. coli BL21, purified (Ni-NTA, TEV cleavage, gel filtration); not shown: His6, N-terminal, cleaved; GST, N-terminal, cleaved
B2: RBM5 OCRE domain (residues 451-511), wild type (domain or fragment, human)
chain: GAMGTKYAVPDTSTYQYDESSGYYYDPTTGLYYDPNSQYYYNSLTQQYLYWDGEKETYVPAAES
notes: tripeptide left by the TEV cleavage; 15N- or 13C,15N-labelled in the NMR experiments; also called RBM5_OCRE WT; source: E. coli BL21, purified (Ni-NTA, TEV cleavage, gel filtration); not shown: His6, N-terminal, cleaved
B3: RBM5 OCRE domain (451-511) Y495A (domain or fragment, human)
chain: B2 chain with Y48A
notes: tripeptide left by the TEV cleavage; RBM5, human, OCRE domain, residues 451-511; source: E. coli BL21, purified (Ni-NTA, TEV cleavage, gel filtration); not shown: His6, N-terminal, cleaved
B4: RBM5 OCRE domain (451-511) Y488A (domain or fragment, human)
chain: B2 chain with Y41A
notes: as for B3
B5: RBM5 OCRE domain (451-511) Y479A (domain or fragment, human)
chain: B2 chain with Y32A
notes: as for B3
B6: RBM5 OCRE domain (451-511) E501K (domain or fragment, human)
chain: B2 chain with E54K
notes: as for B3
B7: RBM5 OCRE domain (451-511) Y454A/D458K (domain or fragment, human)
chain: B2 chain with Y7A, D11K
notes: as for B3
B8: RBM5 OCRE domain (451-511) Y495W (domain or fragment, human)
chain: B2 chain with Y48W
notes: as for B3
B9: RBM5 OCRE domain (451-511) Y486A (domain or fragment, human)
chain: B2 chain with Y39A
notes: as for B3
B10: RBM5 OCRE domain (451-511) Y495F (domain or fragment, human)
chain: B2 chain with Y48F
notes: as for B3
B11: RBM5 OCRE domain (451-511) Y495T (domain or fragment, human)
chain: B2 chain with Y48T
notes: as for B3
B12: SmN 167-240 4P→4A (domain or fragment)
chain: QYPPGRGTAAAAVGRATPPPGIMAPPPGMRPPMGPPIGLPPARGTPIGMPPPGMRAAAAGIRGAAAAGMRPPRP
B13: SmN 167-240 4P/3P→4A/3A (domain or fragment)
chain: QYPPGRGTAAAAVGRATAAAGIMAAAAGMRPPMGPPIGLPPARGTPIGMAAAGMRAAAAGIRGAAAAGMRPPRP
B14: SmN peptide, residues 219-229 (GMRPPPPGIRG) (peptide)
peptide: GMRPPPPGIRG
notes: source: synthetic peptide (Peptide Specialty Laboratory, Heidelberg)
B15: SmN 167-240 4P/3P→4G/3G (domain or fragment)
chain: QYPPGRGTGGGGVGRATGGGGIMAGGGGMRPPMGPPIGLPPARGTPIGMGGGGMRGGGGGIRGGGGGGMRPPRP

How the values were obtained:
Details in all cases: both partners purified
[1] = target: B2; test: ITC; Sm tail constructs with wild type OCRE; SmN constructs (1 mM) titrated into OCRE (100 μM); ITC200, 24°C, 20 mM sodium phosphate pH 6.5, 50 mM NaCl; duplicates
[2] = target: T1, SmN C-terminal tail, residues 167-240 (complete proline-rich region), wild type (human, UniProt P63162 167-240); test: as above
T1 construct: The ITC methods print 168-240 for this construct; also called SmN_167-240 WT; source: E. coli BL21, purified (Ni-NTA, TEV cleavage, gel filtration); not shown: His6, N-terminal, cleaved; GST, N-terminal, cleaved

[3] = target: T2, SmB C-terminal region, residues 167-231, wild type (human, UniProt P14678-2 167-231); test: as above
T2 construct: source: E. coli BL21, purified (Ni-NTA, TEV cleavage, gel filtration); not shown: His6, N-terminal, cleaved; GST, N-terminal, cleaved

[4] = target: T1, SmN C-terminal tail, residues 167-240 …; test: ITC; purified OCRE mutants (2 mM) titrated to wild type SmN (29.5 μM); ITC200, 24°C, 20 mM sodium phosphate pH 6.5, 50 mM NaCl; duplicates
[5] = target: B2; test: NMR structure; solution structure; 2 mM ^13C,^15N-labeled OCRE with 14 mM unlabeled SmN 219-229 peptide, 298 K; 109 intermolecular NOE restraints

Kd [4] [µM]	Binder	other results
–	B1	Kd [1]: 195 µM
–	B2	Kd [2]: 41 µM; Kd [3]: 21 µM
172	B3	–
220	B4	–
111	B5	–
48	B6	–
106	B7	–
35	B8	–
145	B9	–
87	B10	–
186	B11	–
–	B12	Kd [1]: 29 µM
–	B13	Kd [1]: 103 µM
–	B14	binding result [5]: binds
–	B15	Kd [1]: 192 µM
